T1: CHO produced recombinant Bet v 1 containing a S85A mutation with a C-terminal myc-myc hexahistidine tag … (Betula verrucosa (birch))
T1 chain: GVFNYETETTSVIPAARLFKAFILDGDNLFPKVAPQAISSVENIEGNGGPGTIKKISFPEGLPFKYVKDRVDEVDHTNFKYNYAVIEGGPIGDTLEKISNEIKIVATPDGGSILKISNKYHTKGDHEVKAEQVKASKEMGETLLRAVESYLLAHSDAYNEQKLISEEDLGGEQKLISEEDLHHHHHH

T2: European Hornbeam (Car b 1 isoform 1A & 1B, MyBiosource, Cat #MBS1200018) (European Hornbeam, UniProt P38949 2-160)
T2 construct: Bought reagent
T2 sequence (looked up): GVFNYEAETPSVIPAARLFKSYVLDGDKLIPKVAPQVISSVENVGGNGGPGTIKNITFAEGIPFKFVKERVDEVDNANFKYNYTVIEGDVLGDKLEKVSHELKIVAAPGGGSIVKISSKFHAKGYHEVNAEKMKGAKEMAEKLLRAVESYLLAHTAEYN

T3: Celery (Api g 1, MyBiosource, Cat #MBS1171376) (Celery, UniProt P49372 1-154, limits assumed)
T3 construct: Bought reagent
T3 sequence (looked up): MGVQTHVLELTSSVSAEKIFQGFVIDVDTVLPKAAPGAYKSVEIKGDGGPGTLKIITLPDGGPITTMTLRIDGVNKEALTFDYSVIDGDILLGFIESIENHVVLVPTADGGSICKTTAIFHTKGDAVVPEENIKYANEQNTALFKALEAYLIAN

T4: European Hornbeam (Car b 1 isoform 2, MyBiosource, Cat #MBS1043940) (European Hornbeam, UniProt P38950 2-160, limits assumed)
T4 construct: Bought reagent
T4 sequence (looked up): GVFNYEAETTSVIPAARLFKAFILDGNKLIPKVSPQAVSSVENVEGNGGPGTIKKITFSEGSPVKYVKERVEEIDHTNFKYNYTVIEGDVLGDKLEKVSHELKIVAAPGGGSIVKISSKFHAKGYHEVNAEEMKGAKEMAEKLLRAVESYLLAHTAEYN

T5: Alder (Aln g 1, MyBiosource, Cat #MBS1041484) (Alder, UniProt P38948 2-160, limits assumed)
T5 construct: Bought reagent
T5 sequence (looked up): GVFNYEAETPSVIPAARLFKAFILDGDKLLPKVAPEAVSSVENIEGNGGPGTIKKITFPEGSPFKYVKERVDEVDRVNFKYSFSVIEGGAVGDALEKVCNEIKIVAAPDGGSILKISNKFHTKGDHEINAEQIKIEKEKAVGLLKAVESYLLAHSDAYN

T6: Apple (Mal d 1, MyBiosource, Cat #MBS1224919) (Apple, UniProt P43211 2-159, limits assumed)
T6 construct: Bought reagent
T6 sequence (looked up): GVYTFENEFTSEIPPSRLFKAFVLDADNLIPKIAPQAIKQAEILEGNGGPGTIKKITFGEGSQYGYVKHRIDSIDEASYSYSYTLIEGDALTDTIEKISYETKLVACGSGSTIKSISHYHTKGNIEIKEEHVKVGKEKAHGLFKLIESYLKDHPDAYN

B1: H4H17028P (antibody, human IgG4, V domains shown)
VH: QVQLVESGGGVVQPGRSLRLSCAASGFTFSRYAIHWVRQAPGKGLEWVAVISYDGDDKYYGDSVKGRFTISRDNSKTMVYLHMNSLRTEDTAVYYCAKDGYSLYGKDYFDYWGQGTLVTVSS
VL: EIVLTQSPGTLPLSPGERATLSCRASQSITNSYLAWYQQKPDQAPRLLIYGASSRATGIPDRFSGSESGTDFTLTISRLEPEDFAVYYCQQYVRSPWTFGQGTKVEIK
notes: Fully human antibody with human IgG4 Fc (H4H prefix)
B2: H4H17045P2 (antibody, human IgG4, V domains shown)
VH: EVQLVESGGGLVQPGVSLRLSCVASGFTFSNYDITWIRQIPGKGLEWVSRISGSGGSTYFADSVKGRFIISRDNSKNTVYMQMNSLRAEDSAVYYCARRDSVLFSMNSWLDPWGQGTLVTVSS
VL: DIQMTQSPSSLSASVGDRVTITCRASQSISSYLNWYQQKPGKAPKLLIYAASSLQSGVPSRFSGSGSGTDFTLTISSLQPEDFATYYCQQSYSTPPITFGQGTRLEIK
notes: as for B1
B3: H4H17031P (antibody, human IgG4, V domains shown)
VH: QVQLQQWGAGLLKPSETLSLTCVVYGESFGNYHWNWIRQSPGKRLEWIGEINQNGHTNYNPSLKSRVTISVDTSKIQFSLRLNSVTAADTAVYFCARGHNYVNSYFGLDVWGQGTTVTVSS
VL: EIVMTQSPATLSVSPGERATLSCRTSQSVSISLAWYQRKPGQAPRLLIFGSSTRATGVPARFSGSGSGTEFTLTISSLQSEDFAVYYCQQYNNWPYTFGQGTKLEIK
notes: as for B1
B4: H4H17038P2 (antibody, human IgG4 S228P, kappa, V domains shown)
VH: EVQLVESGGDLVQPGGSLRLSCAASGFTFSSYEMNWVRQAPGKGLEWVSFISDSSSNIYYADSVKGRFTISRDNAKKSLYLQMTSLRAEDTAVYYCAREAIGSTSFDNWGQGTLVTVSS
VL: EIVMTQSPATLSVSPGERATLSCRASQSVSSSLAWYQQKPGQAPRRLIYSASTRATGIPARFSGSGSGTEFTLTISSLQSEDFAIYYCHQYNNWPLTFGGGTKVEIKR
notes: human IgG4 Fc; also called REGN5714; MAB3
B5: H4H17033P (antibody, human IgG4, V domains shown)
VH: QVQLVQSGAEVKKPGASVKVSCKASGYTFAAHYMHWVRQAPGQGLEWMGWINTYTGGTNYGQKFQGRVTMTRDTSITTAYMELSRLRSDDTAVYYCARDRRNWNFVFEYWGQGTLVTVSS
VL: DIQMTQSPSSLSASVGDRVTISCRASQNIKNYLNWYQQKPGKAPKLLIYEASNLQSGAPSRFSGSGSGTDFTLTISSLEPEDFATYYCQQSFSIPWTFGQGTKVEIK
notes: as for B1
B6: H4H17067P2 (antibody, human IgG4, V domains shown)
VH: EVQLVQSGAEVKKPGESLKISCSGSGYRFTNYWIAWVRQMPGKGLEWMGLIHPDDSDIRYSPSFQGQVTFSVDKSINTAYLQWSSLKASDTAMYYCTRQDGILWSHNAWFDPWGQGTLVTVSS
VL: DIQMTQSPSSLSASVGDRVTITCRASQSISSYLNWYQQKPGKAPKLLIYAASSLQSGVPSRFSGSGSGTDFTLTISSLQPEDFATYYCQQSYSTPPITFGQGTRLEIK
notes: as for B1

Biological target: T1, CHO produced recombinant Bet v 1 …
Experiment: SPR, mAb captured via anti-hFc, 25 C
Experimental: (§1) Equilibrium dissociation constants (KD) for natural Bet v 1 binding to purified anti-Bet v 1 monoclonal antibodies were determined using a real-time surface plasmon resonance biosensor (SPR-Biacore) on a Biacore 4000 instrument. All binding studies were performed in 10 mM HEPES, 150 mM NaCl, 3 mM EDTA, and 0.05% v/v surfactant Tween-20, pH 7.4 (HBS-ET) running buffer at 25° C. and 37° C. […] Association (kₐ) and dissociation (kd) rate constants were determined by fitting the real-time binding sensorgrams to a 1:1 binding model with mass transport limitation using Scrubber 2.0c curve-fitting software. Binding dissociation equilibrium constants (KD) and dissociative half-lives (t½) were calculated from the kinetic rate constants as:

100 nM natural Bet v 1- MMH Bound (RU) | Kd [nM] | koff [s⁻¹] | kon [M⁻¹ s⁻¹] | t½ [min] | Binder
71 | 0.854 | 0.000693 | 811000 | 17 | B1
60 | 6.23 | 0.000498 | 80000 | 23 | B2
63 | 5.61 | 0.00105 | 187000 | 11 | B3
63 | 9.98 |  |  | 1.8 | B4
67 | 0.768 | 0.000415 | 540000 | 28 | B5
55 | 11.7 | 0.00117 | 100000 | 9.9 | B6

These binders were tested against T2, European Hornbeam (Car b 1 isoform 1A & …) (assay: SPR, mAb captured via anti-hFc, 25 C).
Experimental: (§2) Equilibrium dissociation constants (KD) for different related allergens binding to purified anti-Bet v 1 monoclonal antibodies were determined using a real-time surface plasmon resonance biosensor (SPR-Biacore) on a Biacore 4000 instrument. All binding studies were performed in 10 mM HEPES, 150 mM NaCl, 3 mM EDTA, and 0.05% v/v surfactant Tween-20, pH 7.4 (HBS-ET) running buffer at 25° C. […] Binding studies were performed on the following related allergens: Alder (Aln g 1, MyBiosource, Cat #MBS1041484), Apple (Mal d 1, MyBiosource, Cat #MBS1224919), Carrot (Dau c 1.2, MyBiosource, Cat #MBS1212920), Celery (Api g 1, MyBiosource, Cat #MBS1171376), Celery (Api g 2, MyBiosource, Cat #MBS1047880), European Hornbeam (Car b 1 isoform 1A & 1B, MyBiosource, Cat #MBS1200018), European Hornbeam (Car b 1 isoform 2, MyBiosource, Cat #MBS1043940), Hazel (Cor A 1, MyBiosource, Cat #MBS5304600), and White Oak (Que a 1, MyBiosource, Cat #MBS1258822). […] Association (kₐ) and dissociation (kd) rate constants were determined by fitting the real-time binding sensorgrams to a 1:1 binding model with mass transport limitation using Scrubber 2.0c curve-fitting software. Binding dissociation equilibrium constants (KD) and dissociative half-lives (t½) were calculated from the kinetic rate constants as:

100 nM Analyte Bound (RU) | Kd [nM] | koff [s⁻¹] | kon [M⁻¹ s⁻¹] | t½ [min] | binding result | Binder
159 | 2.43 | 0.000511 | 210000 | 23 |  | B1
5 |  |  |  |  | no binding (tested: 100 nM) | B2
126 | 13.8 | 0.00111 | 80400 | 10 |  | B3
105 | 41.4 |  |  | 1.9 |  | B4
0 |  |  |  |  | no binding (tested: 100 nM) | B5
0 |  |  |  |  | no binding (tested: 100 nM) | B6

These binders were tested against T3, Celery (Api g 1, MyBiosource, Cat …) (assay: SPR, mAb captured via anti-hFc, 25 C).
Experimental: as §2

100 nM Analyte Bound (RU) | binding result | Kd [nM] | koff [s⁻¹] | kon [M⁻¹ s⁻¹] | t½ [min] | Binder
1 | no binding (tested: 100 nM) |  |  |  |  | B1
0 | no binding (tested: 100 nM) |  |  |  |  | B2
0 | no binding (tested: 100 nM) |  |  |  |  | B3
-1 |  |  |  |  |  | B4
39 |  | 167 | 0.0791 | 475000 | 0.2 | B5
0 | no binding (tested: 100 nM) |  |  |  |  | B6

Biological target: T1, CHO produced recombinant Bet v 1 …
Experiment: SPR, mAb captured via anti-hFc, 37 C
Experimental: as §1

100 nM natural Bet v 1-MHH Bound (RU) | Kd [nM] | koff [s⁻¹] | kon [M⁻¹ s⁻¹] | t½ [min] | Binder
77 | 2.32 | 0.00235 | 1.01e+06 | 4.9 | B1
84 | 14.3 | 0.00232 | 162000 | 5 | B2
71 | 14.6 | 0.00406 | 278000 | 2.8 | B3
56 | 35.6 |  |  | 0.39 | B4
79 | 1.34 | 0.00118 | 883000 | 9.8 | B5
76 | 16.9 | 0.00428 | 253000 | 2.7 | B6

What follows are binders tested against T4, European Hornbeam (Car b 1 isoform 2, …) (assay: SPR, mAb captured via anti-hFc, 25 C).
Experimental: as §2

100 nM Analyte Bound (RU) | Kd [nM] | koff [s⁻¹] | kon [M⁻¹ s⁻¹] | t½ [min] | binding result | Binder
95 | 45 | 0.00437 | 97100 | 2.6 |  | B1
5 |  |  |  |  | no binding (tested: 100 nM) | B2
160 | 13.1 | 0.00517 | 395000 | 2.2 |  | B3
 | 50.5 |  |  | 1.8 |  | B4
111 | 33.4 | 0.0447 | 1.34e+06 | 0.3 |  | B5
1 |  |  |  |  | no binding (tested: 100 nM) | B6

These binders were tested against T5, Alder (Aln g 1, MyBiosource, Cat …) (assay: SPR, mAb captured via anti-hFc, 25 C).
Experimental: as §2

100 nM Analyte Bound (RU) | Kd [nM] | koff [s⁻¹] | kon [M⁻¹ s⁻¹] | t½ [min] | binding result | Binder
16 | 36.7 | 0.0019 | 51700 | 6.1 |  | B1
0 |  |  |  |  | no binding (tested: 100 nM) | B2
59 | 45 | 0.00238 | 52900 | 4.8 |  | B3
2 |  |  |  |  | no binding (tested: 100 nM) | B4
3 |  |  |  |  | no binding (tested: 100 nM) | B5
2 |  |  |  |  | no binding (tested: 100 nM) | B6

These binders were tested against T6, Apple (Mal d 1, MyBiosource, Cat …) (assay: SPR, mAb captured via anti-hFc, 25 C).
Experimental: as §2

100 nM Analyte Bound (RU) | binding result | Binder
1 | no binding (tested: 100 nM) | B1
-1 |  | B2
0 | no binding (tested: 100 nM) | B3
-1 |  | B4
1 | no binding (tested: 100 nM) | B5
-1 |  | B6
